Where no end group is shown, it is not given here.
B1: ZAP.32 phage clone (ZAPtide Library) (peptide)
chain: IVGGEPVWYVW
modifications: not fully specified
notes: not shown: M13 gene VIII coat protein fused after the peptide
B2: ZAP.03 phage clone of Table 4B (ZAPtide Library, SEQ ID NO:129) (peptide)
chain: IVGGDFYSSYW
modifications: not fully specified
notes: as for B1
B3: ZAP.91 phage clone (ZAPtide Library) (peptide)
chain: IVGGYPVYFLN
modifications: not fully specified; also: fused before M13 gene VIII coat protein, linker not given here
notes: as for B1
B4: ZAP.54 phage clone (ZAPtide Library) (peptide)
chain: IVGGLDVEYEL
modifications: not fully specified
notes: as for B1
B5: ZAP.65 phage clone (ZAPtide Library) (peptide)
chain: IVGGEPAYWYW
modifications: not fully specified; also: fused before M13 gene VIII coat protein, linker not given here
notes: as for B1
B6: ZAP.63 phage clone (ZAPtide Library) (peptide)
chain: IVGGMRLCGYI
modifications: not fully specified; also: fused before M13 gene VIII coat protein, linker not given here
notes: as for B1
B7: ZAP.13 phage clone (ZAPtide Library) (peptide)
chain: IVGGYPWWITG
modifications: not fully specified
notes: as for B1
B8: ZAP.11 phage clone (ZAPtide Library) (peptide)
chain: IVGGHPMSPFS
modifications: not fully specified
notes: as for B1
B9: ZAP.24 phage clone (ZAPtide Library) (peptide)
chain: IVGGCKRSYWE
modifications: not fully specified
notes: as for B1
B10: ZAP.04 phage clone (ZAPtide Library) (peptide)
chain: IVGGSDFPWWV
modifications: not fully specified
notes: as for B1
B11: ZAP.01a phage clone (ZAPtide Library) (peptide)
chain: IVGGVRCWVSN
modifications: not fully specified
notes: Not the 15-mer ZAP.01; not shown: M13 gene VIII coat protein fused after the peptide
B12: ZAP.53 phage clone (ZAPtide Library) (peptide)
chain: IVGGYPWWVDV
modifications: not fully specified
notes: as for B1
B13: ZAP.06 phage clone (ZAPtide Library) (peptide)
chain: IVGGDGMPWWI
modifications: not fully specified
notes: as for B1
B14: ZAP.30 phage clone (ZAPtide Library) (peptide)
chain: IVGGYPAWMEY
modifications: not fully specified
notes: as for B1
B15: ZAP.15 phage clone (ZAPtide Library) (peptide)
chain: IVGGDPWWFVS
modifications: not fully specified
notes: as for B1
B16: IVGG.14 phage clone (ZAPtide Library) (peptide)
chain: IVGGYPWWMDV
modifications: not fully specified
notes: as for B1
B17: ZAP.67 phage clone (ZAPtide Library) (peptide)
chain: IVGGPHKAFLL
modifications: not fully specified; also: fused before M13 gene VIII coat protein, linker not given here
notes: as for B1
B18: ZAP.09 phage clone (ZAPtide Library) (peptide)
chain: H-IVGGDYWWVPI
modifications: not fully specified
notes: as for B1
B19: ZAP.52 phage clone (ZAPtide Library) (peptide)
chain: IVGGLWEMWVT
modifications: not fully specified
notes: as for B1
B20: ZAP.43 phage clone (ZAPtide Library) (peptide)
chain: IVGGDPVYVLY
modifications: not fully specified
notes: as for B1
B21: ZAP.29 phage clone (ZAPtide Library) (peptide)
chain: IVGGTRCNDWI
modifications: not fully specified
notes: as for B1
B22: ZAP.39 phage clone (ZAPtide Library) (peptide)
chain: IVGGSACLIAM
modifications: not fully specified
notes: as for B1

Biological target: T1, scHGF β-chain (zymogen-like HGF β, residues Asn479 to Ser728, R494E, C-terminal His-tag) (human, UniProt P14210 479-728)
T1 construct: Expressed in insect cells; also called zHGF β; zymogen-like form of HGF β; not shown: C-terminal His-tag
T1 sequence (P14210 479-728 R494E): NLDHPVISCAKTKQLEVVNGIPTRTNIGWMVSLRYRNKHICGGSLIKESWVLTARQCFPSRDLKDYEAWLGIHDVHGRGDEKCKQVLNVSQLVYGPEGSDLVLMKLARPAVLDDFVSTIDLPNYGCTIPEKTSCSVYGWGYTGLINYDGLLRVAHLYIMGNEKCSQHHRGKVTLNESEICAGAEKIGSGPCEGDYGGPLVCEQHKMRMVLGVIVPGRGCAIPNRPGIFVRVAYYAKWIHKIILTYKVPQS
Experiment: phage panning against scHGF β (4 rounds) and phage ELISA
Source text: The pfam database (Finn, R. D. et al. (2010) Nucleic Acids Res 38: D211-22) was used to derive a consensus sequence for trypsin/chymotrypsin-like serine proteases and identify the N-terminal IVGG motif. Peptide libraries were synthesized as fusions to the gene VIII coat protein of M13 phage and panned against scHGF β as previously described (Tonikian, R. et al. (2007) Nat Protoc 2: 1368-86; Sidhu, S. S. et al. (2000) Methods Enzymol. 328:333-63). […] Single phage clones were picked, grown overnight and a standard phage ELISA was used to verify target specific binding. Once the IVGG.14 sequence was identified, soft randomization on gene VIII was performed on positions X₂-X₁₁.

Q: Does B1 bind?
A: binds

Q: Does B2 bind?
A: binds

Q: Does B3 bind?
A: binds

Q: Does B4 bind?
A: binds

Q: Does B5 bind?
A: binds

Q: Does B6 bind?
A: binds

Q: Does B7 bind?
A: binds

Q: Does B8 bind?
A: binds

Q: Does B9 bind?
A: binds

Q: Does B10 bind?
A: binds

Q: Does B11 bind?
A: binds

Q: Does B12 bind?
A: binds

Q: Does B13 bind?
A: binds

Q: Does B14 bind?
A: binds

Q: Does B15 bind?
A: binds

Q: Does B16 bind?
A: binds

Q: Does B17 bind?
A: binds

Q: Does B18 bind?
A: binds

Q: Does B19 bind?
A: binds

Q: Does B20 bind?
A: binds

Q: Does B21 bind?
A: binds

Q: Does B22 bind?
A: binds
